Experimental findings from patent publication US20250188166A1 (BRIGHT PEAK THERAPEUTICS, published 2025) are described below.

Residue numbers refer to the chain shown, from its start. Names and notes keep the numbering of the source. Values joined by “and” are separate entries in the source; they are usually repeats but may differ in a detail not shown here. Identical values can stand only once.

For assay [1], the target named is T1, recombinant biotinylated human FcRn (human, UniProt P55899 24-297; P61769 21-119, limits assumed, biotinylated).
T1 construct: Kit reagent; also called human neonatal Fc receptor
Nature of the assay: AlphaLISA competition at pH 6: test antibody titrated against human IgG acceptor beads for biotinylated human FcRn on streptavidin donor beads; normalized signal.

Assay [2] concerns the target T2, IL-18R on HEK-Blue IL18R reporter cells (UniProt Q13478 19-541; O95256 20-599).
T2 sequence (looked up) 1: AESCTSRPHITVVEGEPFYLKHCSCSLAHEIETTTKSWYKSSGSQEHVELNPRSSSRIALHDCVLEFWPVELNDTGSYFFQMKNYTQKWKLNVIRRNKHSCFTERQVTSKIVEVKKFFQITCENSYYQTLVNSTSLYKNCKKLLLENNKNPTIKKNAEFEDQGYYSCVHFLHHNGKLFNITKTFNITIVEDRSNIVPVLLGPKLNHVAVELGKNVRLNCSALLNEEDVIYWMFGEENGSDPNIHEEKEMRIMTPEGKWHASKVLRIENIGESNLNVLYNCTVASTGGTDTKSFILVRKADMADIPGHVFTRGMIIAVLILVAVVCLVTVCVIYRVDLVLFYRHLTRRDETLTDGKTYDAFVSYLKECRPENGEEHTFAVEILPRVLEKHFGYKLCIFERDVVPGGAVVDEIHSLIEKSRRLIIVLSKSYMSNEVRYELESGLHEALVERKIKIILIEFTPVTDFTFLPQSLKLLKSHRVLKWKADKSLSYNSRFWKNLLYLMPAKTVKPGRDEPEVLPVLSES
T2 sequence (looked up) 2: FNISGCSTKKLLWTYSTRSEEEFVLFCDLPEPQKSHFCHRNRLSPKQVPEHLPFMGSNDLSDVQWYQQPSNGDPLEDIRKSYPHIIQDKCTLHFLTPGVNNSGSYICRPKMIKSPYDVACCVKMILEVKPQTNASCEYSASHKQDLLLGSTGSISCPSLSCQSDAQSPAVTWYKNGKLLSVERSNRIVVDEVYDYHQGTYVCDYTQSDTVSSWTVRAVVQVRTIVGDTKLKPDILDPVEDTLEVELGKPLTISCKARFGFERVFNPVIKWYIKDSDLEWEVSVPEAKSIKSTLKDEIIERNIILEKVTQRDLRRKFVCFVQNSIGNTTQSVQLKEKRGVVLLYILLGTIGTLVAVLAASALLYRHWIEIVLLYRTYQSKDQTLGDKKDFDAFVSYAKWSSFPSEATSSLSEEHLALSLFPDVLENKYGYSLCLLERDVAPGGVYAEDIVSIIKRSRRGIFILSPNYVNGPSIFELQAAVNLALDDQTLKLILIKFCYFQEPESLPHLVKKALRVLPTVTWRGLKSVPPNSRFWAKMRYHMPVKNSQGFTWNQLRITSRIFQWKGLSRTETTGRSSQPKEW
Nature of the assay: cell-based or functional assay.

Assay [3] has as its target T2, IL-18R on HEK-Blue IL18R reporter cells. Nature of the assay: cell-based or functional assay. This is another data set of the same source.
The target is the same in assay [4]. As to the kind of experiment: cell-based or functional assay. This is another data set of the same source.
In another assay the target is T3, His-tagged human IL-18BP (human, UniProt O95998 31-194, limits assumed).
T3 construct: also called human IL-18BP-His
T3 sequence (looked up): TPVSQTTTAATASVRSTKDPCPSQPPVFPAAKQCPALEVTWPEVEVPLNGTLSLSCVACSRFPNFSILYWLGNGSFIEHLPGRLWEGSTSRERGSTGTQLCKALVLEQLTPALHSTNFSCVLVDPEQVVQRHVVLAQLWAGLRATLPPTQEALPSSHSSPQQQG
As to the kind of experiment: AlphaLISA of free IL-18BP: IL-18 analyte titrated in the presence of 5 ng/ml His-tagged human IL-18BP; loss of free IL-18BP signal. (In general: Bead proximity is the source of the signal in Alpha formats.)

B1: Pembrolizumab/Keytruda (antibody, human IgG4 S228P, kappa)
heavy: not shown
light: EIVLTQSPATLSLSPGERATLSCRASKGVSTSGYSYLHWYQQKPGQAPRLLIYLASYLESGVPARFSGSGSGTDFTLTISSLEPEDFAVYYCQHSRDLPLTFGGGTKVEIKRTVAAPSVFIFPPSDEQLKSGTASVVCLLNNFYPREAKVQWKVDNALQSGNSQESVTEQDSKDSTYSLSSTLTLSKADYEKHKVYACEVTHQGLSSPVTKSFNRGEC
notes: also called Lambrolizumab; MK-3475
Regarding B1, the “IC50 (read off the curve)” value in assay [1] was approximately 8000 pM.

B2: IL-18 polypeptide C141 (SEQ ID NO: 71) (ligand)
chain: GYFGKLKSKLSIIRNLNDQVLFIDQGNRPLFEDMTDSDARDNAPRTIFIISMYADSQPRGMAVAISVKCEKISTLSAENKIISFKEMNPPDNIKDTKSDIIFFQRSVPGHDNKMQFESSSYEGYFLAAEKERDLFKLILKKEDELGDRSIMFTVQNED
Take B2: the “EC50, HEK-Blue IL18R SEAP reporter” value in assay [2] was determined as 1.68 pM.

B3: IL-18 polypeptide C192 (SEQ ID NO: 70) (ligand)
chain: B2 chain with M52G
Regarding B3, the “EC50, HEK-Blue IL18R SEAP reporter” value in assay [2] stood at 14 pM.

B4: IL-18 polypeptide C140 (SEQ ID NO: 72) (ligand)
chain: GGGGYFGKLKSKLSIIRNLNDQVLFIDQGNRPLFEDMTDSDARDNAPRTIFIISMYADSQPRGMAVAISVKCEKISTLSAENKIISFKEMNPPDNIKDTKSDIIFFQRSVPGHDNKMQFESSSYEGYFLAAEKERDLFKLILKKEDELGDRSIMFTVQNED
Regarding B4, the “EC50, HEK-Blue IL18R SEAP reporter” value in assay [2] amounted to 2.5 pM.

B5: IL-18 polypeptide C164 (ligand)
chain: YFGKLESKLSIIRNLNDQVLFIDQGNRPLFEDMTDSDARDNAPRTIFIISMYKDHQPRGMAVTISVKCEKISTLSAENKIISFKEMNPPDNIKDTKSDIIFFQRSVPGHDNKMQFESSSYEGYFLAAEKERDLFKLILKKEDELGDRSIMFTVQNED
With B5, the “EC50, HEK-Blue IL18R SEAP reporter” value in assay [2] is 3.14 pM.

B6: IL-18 polypeptide C178 (ligand)
chain: B5 chain with E6K, K53A, H55S, T63A, Q103R
Take B6: the “EC50, HEK-Blue IL18R SEAP reporter” value in assay [2] is 0.26 pM.

B7: IL-18 polypeptide SEQ ID NO: 50 (E06K, K53A, T63A) (ligand)
chain: B5 chain with E6K, I11V, A38C, K53A, H55S, T63A, A76C, A127C
Consider B7, for which, in assay [2], the “EC50, HEK-Blue IL18R SEAP reporter” value stood at 1.77 pM.

B8: IL-18 polypeptide C174 (ligand)
chain: B5 chain with E6K, K8L, K53A, H55S, T63A
Take B8: the “EC50, HEK-Blue IL18R SEAP reporter” value in assay [2] is 0.29 pM.

B9: IL-18 polypeptide C182 (ligand)
chain: B5 chain with E6K, K53A, H55S, T63A, V153Y
Take B9: the “EC50, HEK-Blue IL18R SEAP reporter” value in assay [2] was determined as 0.08 pM.

B10: IL-18 polypeptide SEQ ID NO: 34 (E06K, K53A, S55A) (ligand)
chain: B5 chain with E6K, I11V, A38C, K53A, H55A, A76C, A127C
For B10, the “EC50, HEK-Blue IL18R SEAP reporter” value in assay [2] is 272 pM.

B11: IL-18 polypeptide C177 (ligand)
chain: B5 chain with E6K, I49R, K53A, H55S, T63A
B11: in assay [2], the “EC50, HEK-Blue IL18R SEAP reporter” value was determined as 0.04 pM.

B12: IL-18 polypeptide SEQ ID NO: 60 (E6K, C38Q, K53A) (ligand)
chain: B5 chain with E6K, I11V, A38Q, K53A, H55S, A76C, A127C
Take B12: in assay [2], the “EC50, HEK-Blue IL18R SEAP reporter” value is 0.203 pM.

B13: IL-18 polypeptide C165 (ligand)
chain: B5 chain with H55R
As to B13, the “EC50, HEK-Blue IL18R SEAP reporter” value in assay [2] came to 1.91 pM.

B14: IL-18 polypeptide SEQ ID NO: 56 (E6K, K53A, C38S, C76S, C127S) (ligand)
chain: B5 chain with E6K, I11V, A38S, K53A, H55S, A76S, A127S
On to B14, for which the “EC50, HEK-Blue IL18R SEAP reporter” value in assay [2] was found to be 3.73 pM.

B15: IL-18 polypeptide C167 (ligand)
chain: B5 chain with H55S, S105I
In the case of B15, the “EC50, HEK-Blue IL18R SEAP reporter” value in assay [2] came to 5.37 pM.

B16: IL-18 polypeptide SEQ ID NO: 59 (E6K, C38A, K53A) (ligand)
chain: B5 chain with E6K, I11V, K53A, H55S, A76C, A127C
For B16, the “EC50, HEK-Blue IL18R SEAP reporter” value in assay [2] was 0.268 pM.

B17: IL-18 polypeptide SEQ ID NO: 57 (E6K, C38S, K53A) (ligand)
chain: B5 chain with E6K, I11V, A38S, K53A, H55S, A76C, A127C
For the molecule B17, the “EC50, HEK-Blue IL18R SEAP reporter” value in assay [2] was 0.86 pM and 0.53 pM.

B18: IL-18 polypeptide C184 (ligand)
chain: B5 chain with E6R, K53A, H55S, T63A
For the molecule B18, in assay [2], the “EC50, HEK-Blue IL18R SEAP reporter” value came to 0.04 pM.

B19: IL-18 polypeptide C181 (ligand)
chain: B5 chain with E6K, K53A, H55S, T63A, V153E
On to B19, for which the “EC50, HEK-Blue IL18R SEAP reporter” value in assay [2] came to 0.1 pM.

B20: IL-18 polypeptide SEQ ID NO: 42 (E06K, K53A, S55A, T63A) (ligand)
chain: B5 chain with E6K, I11V, A38C, K53A, H55A, T63A, A76C, A127C
B20: the “EC50, HEK-Blue IL18R SEAP reporter” value in assay [2] amounted to 0.79 pM.

B21: IL-18 polypeptide C176 (ligand)
chain: B5 chain with E6K, I49M, K53A, H55S, T63A
On to B21, for which the “EC50, HEK-Blue IL18R SEAP reporter” value in assay [2] amounted to 0.07 pM.

B22: IL-18 polypeptide SEQ ID NO: 30 (E6K, V11I, C38A, K53A, T63A, C76A, C127A) (ligand)
chain: B5 chain with E6K, K53A, H55S, T63A
notes: also called C086; IL-18 variant
As to B22, in assay [2], the “EC50, HEK-Blue IL18R SEAP reporter” value came out at 0.034 pM. Further, the “IL-18R Hek Blue assay EC50” value in assay [3] turned out to be 0.057 pM. The “EC50 (read off the curve)” value in assay [4] was approximately 0.05 pM. For the same molecule, the “IC50 (read off the curve)” value in the assay with His-tagged human IL-18BP is approximately 9000 pM.

B23: IL-18 polypeptide C168 (ligand)
chain: B5 chain with H55S, S105K
In the case of B23, the “EC50, HEK-Blue IL18R SEAP reporter” value in assay [2] worked out at 7.73 pM.

B24: IL-18 polypeptide C183 (SEQ ID NO: 69) (ligand)
chain: B5 chain with E6K, M51G, K53A, H55S, T63A
As for B24, the “EC50, HEK-Blue IL18R SEAP reporter” value in assay [2] is 0.1 pM.

B25: IL-18 polypeptide SEQ ID NO: 62 (E6K, C38A, K53A, C127A) (ligand)
chain: B5 chain with E6K, I11V, K53A, H55S, A76C
As to B25, in assay [2], the “EC50, HEK-Blue IL18R SEAP reporter” value is 0.17 pM.

B26: IL-18 polypeptide C166 (ligand)
chain: B5 chain with H55T
In the case of B26, in assay [2], the “EC50, HEK-Blue IL18R SEAP reporter” value came out at 4.73 pM.

B27: IL-18 polypeptide SEQ ID NO: 54 (E06K, K53A, C38S, C68S, C76S, C127S, K70C) (ligand)
chain: B5 chain with E6K, I11V, A38S, K53A, H55S, C68S, K70C, A76S, A127S
For the molecule B27, the “EC50, HEK-Blue IL18R SEAP reporter” value in assay [2] turned out to be 9.12 pM.

B28: IL-18 polypeptide C179 (ligand)
chain: B5 chain with E6K, K8E, K53A, H55S, T63A, Q103R
Take B28: in assay [2], the “EC50, HEK-Blue IL18R SEAP reporter” value is 0.4 pM.

By EC50 (read off the curve) is commonly meant the concentration giving half of the maximal effect. Lower therefore signals greater potency.
